The results in this text go back to paper PMC3114845, “Bordetella pertussis Autotransporter Vag8 Binds Human C1 Esterase Inhibitor and Confers Serum Resistance” (PLoS ONE, 2011).

For this assay, the target named is T1, histidine-tagged Vag8 passenger domain (residues Val40 to Leu610) (Bordetella pertussis, UniProt Q79GN7 40-610).
T1 construct: autotransporter Vag8, Bordetella pertussis BP338 (Tohama I derivative), predicted passenger domain, residues Val40 to Leu610; Cloned with BamHI and HindIII into pET30b; also called purified Vag8 passenger; recombinant Vag8
T1 sequence: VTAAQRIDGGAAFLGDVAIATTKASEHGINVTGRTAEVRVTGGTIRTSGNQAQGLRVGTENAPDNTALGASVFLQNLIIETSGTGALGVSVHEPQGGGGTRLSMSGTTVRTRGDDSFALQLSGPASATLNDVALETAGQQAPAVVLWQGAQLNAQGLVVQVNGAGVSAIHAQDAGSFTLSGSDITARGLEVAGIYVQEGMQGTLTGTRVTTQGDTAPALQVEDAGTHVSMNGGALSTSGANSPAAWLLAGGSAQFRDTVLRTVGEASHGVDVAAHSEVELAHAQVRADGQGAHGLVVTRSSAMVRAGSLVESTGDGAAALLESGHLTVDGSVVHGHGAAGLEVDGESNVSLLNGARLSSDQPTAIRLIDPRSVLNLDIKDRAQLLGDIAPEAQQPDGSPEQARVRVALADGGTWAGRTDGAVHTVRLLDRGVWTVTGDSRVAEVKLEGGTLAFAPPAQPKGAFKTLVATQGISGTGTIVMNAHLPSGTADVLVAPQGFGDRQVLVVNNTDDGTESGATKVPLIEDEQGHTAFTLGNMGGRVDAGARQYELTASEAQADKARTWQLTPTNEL
The assay can be described thus: ELISA; MaxiSorp plates coated with two-fold dilutions of purified passenger domain (top 5 µg/ml, PBS pH 7.4, overnight 4°C); probed 1 h at room temperature with 10 µg/ml purified human C1inh; detected with goat anti-C1inh. The following applies: both partners purified.

B1: purified human C1 esterase inhibitor (natural protein)
chain: NPNATSSSSQDPESLQDRGEGKVATTVISKMLFVEPILEVSSLPTTNSTTNSATKITANTTDEPTTQPTTEPTTQPTIQPTQPTTQLPTDSPTQPTTGSFCPGPVTLCSDLESHSTEAVLGDALVDFSLKLYHAFSAMKKVETNMAFSPFSIASLLTQVLLGAGENTKTNLESILSYPKDFTCVHQALKGFTTKGVTSVSQIFHSPDLAIRDTFVNASRTLYSSSPRVLSNNSDANLELINTWVAKNTNNKISRLLDSLPSDTRLVLLNAIYLSAKWKTTFDPKKTRMEPFHFKNSVIKVPMMNSKKYPVAHFIDQTLKAKVGQLQLSHNLSLVILVPQNLKHRLEDMEQALSPSVFKAIMEKLEMSKFQPTLLTLPRIKVTTSQDMLSIMEKLEFFDFSYDLNLCGLTEDPDLQVSAMQHQTVLELTETGVEAAAASAISVARTLLVFEVQQPFLFVLWDQQHKFPVFMGRVYDPRA
notes: also called C1inh; purified C1inh; source: bought: Advanced Research Technologies (purified human C1inh)
For B1, the binding result was “binds”.
